From patent US20120039802A1 (published 2012)

molecular target: T1, cMet-Fc fusion protein (extracellular domain of the cMet receptor expressed as an Fc-fusion protein) (human, UniProt P08581 25-932); assay: phage ELISA on cMet-Fc, competitor HGF 100 ng/mL
T1 construct: extracellular domain; also called soluble cMet-Fc-fusion protein; soluble cMet receptor; not shown: Fc part
Method in brief: (§1)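 Plates coated with 0.5 μg/mL cMet-Fc, with TRAIL-Fc as background, then blocked with 3% BSA. Bound phage detected with HRP anti-M13 antibody.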

T1 sequence (P08581 25-932): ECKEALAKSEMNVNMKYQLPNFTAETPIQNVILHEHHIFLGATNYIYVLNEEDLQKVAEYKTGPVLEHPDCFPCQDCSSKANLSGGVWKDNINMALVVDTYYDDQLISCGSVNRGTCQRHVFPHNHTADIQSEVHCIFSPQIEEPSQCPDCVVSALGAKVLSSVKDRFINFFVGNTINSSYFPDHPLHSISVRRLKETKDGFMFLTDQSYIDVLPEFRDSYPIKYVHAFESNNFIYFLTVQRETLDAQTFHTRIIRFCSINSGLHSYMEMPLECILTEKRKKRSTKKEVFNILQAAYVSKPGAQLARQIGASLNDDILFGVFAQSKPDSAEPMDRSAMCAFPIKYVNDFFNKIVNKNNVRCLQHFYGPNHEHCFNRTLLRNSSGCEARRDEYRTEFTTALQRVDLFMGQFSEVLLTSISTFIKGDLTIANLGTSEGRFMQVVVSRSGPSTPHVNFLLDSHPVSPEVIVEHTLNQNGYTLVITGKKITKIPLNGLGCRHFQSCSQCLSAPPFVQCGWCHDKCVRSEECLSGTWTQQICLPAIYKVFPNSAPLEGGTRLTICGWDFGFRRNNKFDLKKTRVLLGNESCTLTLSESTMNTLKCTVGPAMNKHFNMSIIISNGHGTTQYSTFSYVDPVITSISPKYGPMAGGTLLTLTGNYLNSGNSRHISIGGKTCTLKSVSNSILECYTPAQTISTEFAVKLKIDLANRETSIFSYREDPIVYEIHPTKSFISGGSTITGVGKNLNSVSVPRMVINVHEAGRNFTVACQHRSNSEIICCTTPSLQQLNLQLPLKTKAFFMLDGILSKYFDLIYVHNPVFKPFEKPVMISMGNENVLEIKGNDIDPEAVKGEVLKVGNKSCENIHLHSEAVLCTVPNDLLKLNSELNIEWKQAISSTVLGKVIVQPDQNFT

In order of rising “% of binding in the absence of HGF” value:
1. AQSDHDHAHWGVKHWPFRRYQ [93-B10 peptide-displaying phage (SEQ ID NO: 482)]  0%
2. AQVEDMATVHFKFNPATHEVIW [524-H02 peptide-displaying phage (SEQ ID NO: 492)]  26%
3. AGYPECKDNYHWCEWKGT [457-A09 peptide-displaying phage (SEQ ID NO: 024)]  27%
4. AQMWHRVHDPGYTFEVTWLWDN [166-H04 peptide-displaying phage (SEQ ID NO: 488)]  77%
5. AQHMDPAEWDWFIRIYSPVVNP [149-E06 peptide-displaying phage (SEQ ID NO: 487)]  80%
6. AGTVYCSWESSECWWVGT [352-E04 peptide-displaying phage (SEQ ID NO: 019)]  88%
7. AQLFQYLWHDDPQGAFFQLSMW [98-F05 peptide-displaying phage (SEQ ID NO: 483)]  88%
8. AGWFECEFGFWGCNWLGT [437-A09 peptide-displaying phage (SEQ ID NO: 018)]  89%
9. AGDHYCWEEWWFCWDSGT [482-A12 peptide-displaying phage (SEQ ID NO: 021)]  98%
10. AQHVVTLTLIQMPFAFNFEPRM [118-B12 peptide-displaying phage (SEQ ID NO: 484)]  98%
11. AQWGAVDNDWYDWEMEQIWMFE [527-E08 peptide-displaying phage (SEQ ID NO: 491)]  98%
12. AQQWMFQIHQSMAWPYEWIDSY [524-D07 peptide-displaying phage (SEQ ID NO: 494)]  105%
13. AQGIAWQLEWSYMPQSPPSFDR [522-H03 peptide-displaying phage (SEQ ID NO: 495)]  107%
14. AGVWICRVWDDECFFQGT [376-E05 peptide-displaying phage (SEQ ID NO: 020)]  122%
15. AQRDYLFYWNDGSYQPWQVFVG [523-A04 peptide-displaying phage (SEQ ID NO: 493)]  133%
16. AQWNWDMGFMWTTDSAQVQPSM [96-D06 peptide-displaying phage (SEQ ID NO: 489)]  154%

molecular target: T2, human cMet expressed on 3T3 cells (human, UniProt P08581 25-1390); assay: whole cell phage ELISA, 3T3 human cMet vs 3T3
T2 construct: whole, on cells; cells fixed with glutaraldehyde; also called cell surface-expressed human cMet; 3T3 cells that over-express human cMet
T2 sequence (P08581 25-1390): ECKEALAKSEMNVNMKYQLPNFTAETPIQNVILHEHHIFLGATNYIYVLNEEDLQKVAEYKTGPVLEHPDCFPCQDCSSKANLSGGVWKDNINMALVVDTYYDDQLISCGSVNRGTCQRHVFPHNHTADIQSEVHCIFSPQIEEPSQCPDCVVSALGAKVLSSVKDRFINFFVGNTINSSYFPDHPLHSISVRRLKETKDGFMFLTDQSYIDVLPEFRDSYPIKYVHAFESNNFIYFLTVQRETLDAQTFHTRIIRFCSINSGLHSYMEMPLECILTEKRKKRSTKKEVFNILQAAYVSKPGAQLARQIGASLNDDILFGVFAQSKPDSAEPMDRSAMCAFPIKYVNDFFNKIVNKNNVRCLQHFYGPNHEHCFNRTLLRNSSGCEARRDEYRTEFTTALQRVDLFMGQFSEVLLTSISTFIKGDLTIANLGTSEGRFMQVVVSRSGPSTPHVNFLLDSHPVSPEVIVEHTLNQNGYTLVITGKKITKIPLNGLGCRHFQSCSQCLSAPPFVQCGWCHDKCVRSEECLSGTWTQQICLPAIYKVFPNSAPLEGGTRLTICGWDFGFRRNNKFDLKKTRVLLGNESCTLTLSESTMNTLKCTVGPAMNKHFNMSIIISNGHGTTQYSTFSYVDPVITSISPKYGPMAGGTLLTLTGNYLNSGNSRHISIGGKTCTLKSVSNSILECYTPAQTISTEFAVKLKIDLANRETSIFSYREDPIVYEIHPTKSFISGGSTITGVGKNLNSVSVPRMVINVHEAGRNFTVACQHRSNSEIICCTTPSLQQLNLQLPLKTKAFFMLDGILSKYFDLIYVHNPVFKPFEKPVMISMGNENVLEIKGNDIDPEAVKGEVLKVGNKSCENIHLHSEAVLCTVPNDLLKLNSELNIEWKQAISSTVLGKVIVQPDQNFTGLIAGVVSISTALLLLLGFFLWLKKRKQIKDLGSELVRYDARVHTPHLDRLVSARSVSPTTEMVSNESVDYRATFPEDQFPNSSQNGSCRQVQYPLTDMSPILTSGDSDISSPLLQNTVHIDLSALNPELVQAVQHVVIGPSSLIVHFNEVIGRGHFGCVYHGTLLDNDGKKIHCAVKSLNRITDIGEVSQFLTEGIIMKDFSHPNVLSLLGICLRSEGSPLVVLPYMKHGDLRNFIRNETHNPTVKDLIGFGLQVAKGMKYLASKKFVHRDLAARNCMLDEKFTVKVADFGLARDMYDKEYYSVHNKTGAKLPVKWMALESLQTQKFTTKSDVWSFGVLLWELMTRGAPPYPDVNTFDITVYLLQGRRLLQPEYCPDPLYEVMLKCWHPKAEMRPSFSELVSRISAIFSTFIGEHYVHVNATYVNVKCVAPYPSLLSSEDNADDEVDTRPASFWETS
Method in brief: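 3T3 cells over-expressing human cMet, compared against parental 3T3, seeded at 10⁵ per well and fixed with 0.1% glutaraldehyde for 12 min at 37 C. Blocked peptide-displaying phage bound for 1 h at room temperature. After PBST washes, bound phage was detected with HRP-conjugated anti-M13 antibody.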

In order of rising “WC ELISA (fold over background)” value:
1. AGWFECEFGFWGCNWLGT [437-A09 peptide-displaying phage (SEQ ID NO: 018)]  1.13 fold
2. AQGIAWQLEWSYMPQSPPSFDR [522-H03 peptide-displaying phage (SEQ ID NO: 495)]  1.17 fold
3. AQSDHDHAHWGVKHWPFRRYQ [93-B10 peptide-displaying phage (SEQ ID NO: 482)]  1.2 fold
4. AQQWMFQIHQSMAWPYEWIDSY [524-D07 peptide-displaying phage (SEQ ID NO: 494)]  1.23 fold
5. AQWGAVDNDWYDWEMEQIWMFE [527-E08 peptide-displaying phage (SEQ ID NO: 491)]  1.23 fold
6. AQLFQYLWHDDPQGAFFQLSMW [98-F05 peptide-displaying phage (SEQ ID NO: 483)]  1.23 fold
7. AQMWHRVHDPGYTFEVTWLWDN [166-H04 peptide-displaying phage (SEQ ID NO: 488)]  1.27 fold
8. AQHVVTLTLIQMPFAFNFEPRM [118-B12 peptide-displaying phage (SEQ ID NO: 484)]  1.3 fold
9. AQRDYLFYWNDGSYQPWQVFVG [523-A04 peptide-displaying phage (SEQ ID NO: 493)]  1.3 fold
10. AGYPECKDNYHWCEWKGT [457-A09 peptide-displaying phage (SEQ ID NO: 024)]  1.3 fold
11. AQWNWDMGFMWTTDSAQVQPSM [96-D06 peptide-displaying phage (SEQ ID NO: 489)]  1.37 fold
12. AGVWICRVWDDECFFQGT [376-E05 peptide-displaying phage (SEQ ID NO: 020)]  1.37 fold
13. AGTVYCSWESSECWWVGT [352-E04 peptide-displaying phage (SEQ ID NO: 019)]  1.37 fold
14. AGDHYCWEEWWFCWDSGT [482-A12 peptide-displaying phage (SEQ ID NO: 021)]  1.37 fold
15. AQVEDMATVHFKFNPATHEVIW [524-H02 peptide-displaying phage (SEQ ID NO: 492)]  1.53 fold
16. AQHMDPAEWDWFIRIYSPVVNP [149-E06 peptide-displaying phage (SEQ ID NO: 487)]  1.8 fold

molecular target: T1, cMet-Fc fusion protein (extracellular …); assay: phage ELISA, cMet-Fc vs TRAIL-Fc
Method in brief: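 Plates coated overnight at 4 C with 0.5 μg/mL cMet-Fc, or TRAIL-Fc as background, were blocked with 3% BSA in PBST. Peptide-displaying phage were bound 2 h at room temperature. Bound phage were detected with HRP-conjugated anti-M13 antibody.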

In order of rising “Protein ELISA (fold over background)” value:
1. AQHMDPAEWDWFIRIYSPVVNP [149-E06 peptide-displaying phage (SEQ ID NO: 487)]  3 fold
2. AQMWHRVHDPGYTFEVTWLWDN [166-H04 peptide-displaying phage (SEQ ID NO: 488)]  3 fold
3. AQWNWDMGFMWTTDSAQVQPSM [96-D06 peptide-displaying phage (SEQ ID NO: 489)]  3 fold
4. AQSDHDHAHWGVKHWPFRRYQ [93-B10 peptide-displaying phage (SEQ ID NO: 482)]  3.1 fold
5. AQHVVTLTLIQMPFAFNFEPRM [118-B12 peptide-displaying phage (SEQ ID NO: 484)]  3.1 fold
6. AQLFQYLWHDDPQGAFFQLSMW [98-F05 peptide-displaying phage (SEQ ID NO: 483)]  3.1 fold
7. AQVEDMATVHFKFNPATHEVIW [524-H02 peptide-displaying phage (SEQ ID NO: 492)]  3.2 fold
8. AQWGAVDNDWYDWEMEQIWMFE [527-E08 peptide-displaying phage (SEQ ID NO: 491)]  3.2 fold
9. AGDHYCWEEWWFCWDSGT [482-A12 peptide-displaying phage (SEQ ID NO: 021)]  3.5 fold
10. AGVWICRVWDDECFFQGT [376-E05 peptide-displaying phage (SEQ ID NO: 020)]  3.7 fold
11. AGTVYCSWESSECWWVGT [352-E04 peptide-displaying phage (SEQ ID NO: 019)]  3.9 fold
12. AGWFECEFGFWGCNWLGT [437-A09 peptide-displaying phage (SEQ ID NO: 018)]  3.9 fold
13. AQQWMFQIHQSMAWPYEWIDSY [524-D07 peptide-displaying phage (SEQ ID NO: 494)]  3.9 fold
14. AQGIAWQLEWSYMPQSPPSFDR [522-H03 peptide-displaying phage (SEQ ID NO: 495)]  4.5 fold
15. AQRDYLFYWNDGSYQPWQVFVG [523-A04 peptide-displaying phage (SEQ ID NO: 493)]  5.5 fold
16. AGYPECKDNYHWCEWKGT [457-A09 peptide-displaying phage (SEQ ID NO: 024)]  14.5 fold

molecular target: T1, cMet-Fc fusion protein (extracellular …); assay: phage ELISA on cMet-Fc, competitor HGF 500 ng/mL
Method in brief: as §1

In order of falling “% of binding in the absence of HGF” value:
1. AQWNWDMGFMWTTDSAQVQPSM [96-D06 peptide-displaying phage (SEQ ID NO: 489)]  151%
2. AQRDYLFYWNDGSYQPWQVFVG [523-A04 peptide-displaying phage (SEQ ID NO: 493)]  143%
3. AGVWICRVWDDECFFQGT [376-E05 peptide-displaying phage (SEQ ID NO: 020)]  121%
4. AQHVVTLTLIQMPFAFNFEPRM [118-B12 peptide-displaying phage (SEQ ID NO: 484)]  112%
5. AQQWMFQIHQSMAWPYEWIDSY [524-D07 peptide-displaying phage (SEQ ID NO: 494)]  104%
6. AQWGAVDNDWYDWEMEQIWMFE [527-E08 peptide-displaying phage (SEQ ID NO: 491)]  95%
7. AQGIAWQLEWSYMPQSPPSFDR [522-H03 peptide-displaying phage (SEQ ID NO: 495)]  94%
8. AQHMDPAEWDWFIRIYSPVVNP [149-E06 peptide-displaying phage (SEQ ID NO: 487)]  86%
9. AQMWHRVHDPGYTFEVTWLWDN [166-H04 peptide-displaying phage (SEQ ID NO: 488)]  85%
10. AGDHYCWEEWWFCWDSGT [482-A12 peptide-displaying phage (SEQ ID NO: 021)]  79%
11. AGWFECEFGFWGCNWLGT [437-A09 peptide-displaying phage (SEQ ID NO: 018)]  78%
12. AGTVYCSWESSECWWVGT [352-E04 peptide-displaying phage (SEQ ID NO: 019)]  74%
13. AGYPECKDNYHWCEWKGT [457-A09 peptide-displaying phage (SEQ ID NO: 024)]  67%
14. AQLFQYLWHDDPQGAFFQLSMW [98-F05 peptide-displaying phage (SEQ ID NO: 483)]  57%
15. AQVEDMATVHFKFNPATHEVIW [524-H02 peptide-displaying phage (SEQ ID NO: 492)]  25%
16. AQSDHDHAHWGVKHWPFRRYQ [93-B10 peptide-displaying phage (SEQ ID NO: 482)]  0%
